Molecular target: T1, mCherry–Gβ1γ2 dimer (UniProt P62873 1-340; P59768 1-71, 20-carbon geranylgeranyl lipid on the cysteine of the C-terminal CaaX motif (said of Gγ2 in general))
T1 construct: Gβ1 subunit; cDNA in pcDNA3.1+ from UMR cDNA Resource Center; FP cloned at the N-terminus; Gγ2 subunit; source: HEK 293, transiently co-transfected (mCherry–Gβ1 and Gγ2), in living cells; not shown: mCherry, N-terminal, kept
Assay: FRET or BRET; FLIM-FRET in living transiently transfected HEK 293 cells at 37 °C; donor Citrine in Gα, acceptor mCherry on Gβ1 with the appropriate Gγ; efficiency E = 1 − τda/τd from the short lifetime component τ1 (donor alone 2.7 ± 0.1 ns), analysed only at the plasma membrane; GppNHp added to the culture did not change the signal
Conditions: partners not purified

Row | FRET efficiency [%] | Binder
1 | 12.9 | Citrine–GαsIEK (natural protein, Gαs subunit with the conserved region Ile26–Glu27–Lys28 (G.HN.43–45) changed to three alanines; cDNA from UMR cDNA Resource Center; the L1 loop Glu71-Ser82 exchanged for the fluorescent protein as in m1; Mutations made with the Quick Change method on the Gαs fusion; also called mutant GαsIEK protein; source: HEK 293, transiently transfected; in living cells (FLIM-FRET) and in cell lysate or …) MGCLGNSKTEDQRNEEKAQREANKKAAAQLQKDKQVYRATHRLLLLGAGESGKSTIVKQMRILHVNGFNGNSDGEKATKVQDIKNNLKEAIETIVAAMSNLVPPVELANPENQFRVDYILSVMNVPDFDFPPEFYEHAKALWEDEGVRACYERSNEYQLIDCAQYFLDKIDVIKQADYVPSDQDLLRCRVLTSGIFETKFQVDKVNFHMFDVGGQRDERRKWIQCFNDVTAIIFVVASSSYNMVIREDNQTNRLQEALNLFKSIWNNRWLRTISVILFLNKQDLLAEKVLAGKSKIEDYFPEFARYTTPEDATPEPGEDPRVTRAKYFIRDEFLRISTASGDGRHYCYPHFTCAVDTENIRRVFNDCRDIIQRMHLRQYELL
2 | 50 | Citrine–Gαi3 (natural protein, cDNA in pcDNA3.1+ from UMR cDNA Resource Center; also called loop-tagged Gαi3; source: HEK 293, transiently transfected, in living cells; not shown: Citrine, internal (after residue 114), kept) MGCTLSAEDKAAVERSKMIDRNLREDGEKAAKEVKLLLLGAGESGKSTIVKQMKIIHEDGYSEDECKQYKVVVYSNTIQSIIAIIRAMGRLKIDFGEAARADDARQLFVLAGSAEEGVMTPELAGVIKRLWRDGGVQACFSRSREYQLNDSASYYLNDLDRISQSNYIPTQQDVLRTRVKTTGIVETHFTFKDLYFKMFDVGGQRSERKKWIHCFEGVTAIIFCVALSDYDLVLAEDEEMNRMHESMKLFDSICNNKWFTETSIILFLNKKDLFEEKIKRSPLTICYPEYTGSNTYEEAAAYIQCQFEDLNRRKDTKEIYTHFTCATDTKNVQFVFDAVTDVIIKNNLKECGLY
